Key:
[1] = system: male Wistar rats; assay: formalin test, intrathecal administration, comparison with morphine (Example 12); type: in vivo; settings: 30 minutes before formalin, bLF 0.1 to 100 μg/rat, rhLF 100 μg/rat, morphine 10 μg/rat, FIGS. 15
Protocol: Groups consisting of male Wistar rats 6 weeks of age (n=6 to 8) were intrathecally administered 0.1 to 100 μg/rat of bovine lactoferrin (bLF), 100 μg/rat of recombinant human lactoferrin (rhLF) or 10 μg/rat of morphine (Mor) 30 minutes before formalin was injected into their foot pads. The results are shown in FIGS. 15: the number of the foot-lifting times in the phase 1 pain (left graph) and the number of the foot-lifting times in the phase 2 pain (right graph).

[2] = system: rodent animals; assay: hot plate test; type: in vivo; settings: administration before test
Excerpt: (§1) The inventors carried out, using rodent animals, animal tests related to pain: (1) hot plate test, (2) formalin test and (3) acetic acid rising test to examine the influences of lactoferrin administration on the animals' sensation of pain.

[3] = system: protease; assay: resistance of lactoferrin to protease; type: in vitro ADME
Excerpt: (§2) Preferably the composition of this invention, as a composition for an oral formulation, is made into an enteric-coated dosage form. The inventors of this invention hypothesize that there exists a structure, which can be referred to as a lactoferrin sensor, on the mucosa of the intestinal tract, as described in detail in International Patent Application, PCT/JP01/10212 (WO02/41912).

[4] = system: beagles; assay: single dose acute toxicity study (GLP), oral; type: in vivo; settings: maximum dose of 5 g/kg
Excerpt: (§3) In toxicity studies in beagles and rats carried out by the inventors in accordance with GLP, lactofferin extracted from milk (manufactured by Tatua Milk Industry Co., Ltd., New Zealand, purity: 87%) was non-toxic after oral administration at physical limit doses. […] Accordingly, lactoferrin is probably non-toxic after oral administration and has almost ideal characteristics as a therapy for cancer. It is likely that lactoferrin defends opportunistic infections frequently occurring in immunocompromised hosts such as patients with cancer, prevents carcinogenesis, inhibits the growth of cancer, prevents metastasis, and destructs a metastatic lesion. Further, it is probably highly safe when administered to patients declining in immunopotency, such as aged patients.

[5] = system: rats; assay: single dose acute toxicity study (GLP), oral; type: in vivo; settings: maximum dose of 5 g/kg
Excerpt: as §3

[6] = system: male Wistar rats; assay: formalin test, comparison with diclofenac (Example 3); type: in vivo, rat; settings: i.p. 30 minutes before formalin
Protocol: Male Wistar rats 6 weeks of age were used. The rats in one group were given bovine lactoferrin and those in another group were given a control drug, diclofenac, by intraperitoneal administration 30 minutes before injecting formalin into their foot pads. Their responses to pain are shown in FIG. 5: the phase 1 pain (left) and the phase 2 pain (right).
Lactoferrin and diclofenac were administered intraperitoneally 30 minutes before formalin injection both in the control group (n=4) and the diclofenac group (n=5). The pain inhibiting effect of diclofenac disappeared about 50 minutes after formalin injection, whereas the pain inhibiting effect of lactoferrin lasted long and even 60 minutes after formalin injection.

[7] = system: pepsin; type: in vitro ADME
Excerpt: as §2

[8] = system: male Wistar rats; assay: ethanol and restriction stress gastric ulcer (Example 4); type: in vivo, rat; settings: 1% bovine lactoferrin in feed for 8 weeks; relative to control group
Protocol: Sixteen male Wistar rats (6 weeks of age) were randomly divided into two groups, and the rats in one group (n=8) were fed standard feed powder for rodent animals (CLEA JAPAN, INC., CE-2) while those in the other group (n=8) fed CE-2 with 1% bovine lactoferrin added thereto for 8 weeks. Eight weeks later, the rats were deprived of food for one night, administered orally and forcibly 5 ml/kg weight of 50% ethanol, and subsequently inflicted with restriction stress for 2 hours. Two 2 hours later, the stomach of each rat was excised and “number of hemorrhagic spots”, “area of hemorrhage”, “number of ulcers”, “number of large ulcers” and “areas of ulcers” on the gastric mucosa were measured.

[9] = system: male Wistar rats; assay: formalin test, oral administration in feed for 4 weeks (Example 2); type: in vivo, rat; settings: 1% bovine lactoferrin in feed for 4 weeks
Protocol: (§4) Formalin test is a typical pain sensation stimulating test. It is a method for determining an analgesic effect of drugs in which 50 μl of 2% formalin is injected into a foot pad of each experimental rat and the foot-lifting and foot-licking behavior of the rats is observed.
Fourteen male Wistar rats (6 weeks of age) were randomly divided into two groups, and the rats in one group were fed standard feed powder for rodent animals (Clea Japan, Inc., CE-2) while those in the other group fed CE-2 with 1% bovine lactoferrin added thereto for 4 weeks. Four weeks later, formalin solution was injected into the foot pad of each rat, and the foot-lifting and foot-licking behavior of each rat due to the pain sensation stimulation was measured for one hour (FIGS. 3 and 4).

[10] = system: adjuvant arthritis rat model; assay: adjuvant arthritis rat model, treatment in chronic phase (Example 6); type: in vivo
Protocol: Subsequently after Example 5, lactoferrin (100 mg/kg) was orally administered for 7 consecutive days starting from day 19 after the adjuvant treatment, when the adjuvant treated rats were in the chronic phase of inflammation.

[11] = system: adjuvant arthritis rat model; type: in vivo; settings: LF 100 mg/kg oral sid or bid, Dex 1 mg/kg i.p. sid
Protocol: The preventive/therapeutic effects against arthritis of orally administered lactoferrin (LF) and the mechanism of the action were examined using an adjuvant arthritis rat model as an animal model with rheumatoid arthritis.
Evaluation of the above described effects was performed by measuring the change in volume of foot due to swelling, Flexion test (pain in joints caused in flexion and extension test), and the production of cytokine by the stimulation of lipopolysaccharide.
Adjuvant was injected subcutaneously into the sole of the right hind leg of each rat, and the volume of the feet was measured once a day to obtain the swelling rate of the feet of both hind legs. The test substance was suspended in 0.5% CMC and administered once or twice a day for 18 consecutive days starting from the first dose 3 hours before adjuvant treatment (day 0). On 4th and 10th days after treating with adjuvant, the swollen tarsal joint of each rat was extended 10 times and the number of times each rat screamed due to the stimulation of pain sensation caused by flexing and extending its tarsal joint was measured.

[12] = system: beagles; assay: subacute toxicity study, dosing period of 3 months, oral; type: in vivo; settings: maximum dose of 2 g/kg
Excerpt: as §3

[13] = system: rats; assay: as above; type: in vivo; settings: maximum dose of 2 g/kg
Excerpt: as §3

[14] = system: male Wistar rats; assay: formalin test, intraperitoneal administration (Example 1); type: in vivo, rat
Protocol: as §4
Ten male Wistar rats (6 weeks of age) were randomly divided into two groups, and one hour before injecting formalin, the rats in the control group were given saline solution (1 ml/kg) and those in the lactoferrin group were given bovine lactoferrin dissolved in saline solution (100 ml/kg, Tatua Milk Industry Co., Ltd., purity: 87%) by intraperitoneal injection. After one hour, formalin solution was injected into the foot pad of each rat, and the foot-lifting and foot-licking behavior of each rat due to the stimulation of the pain sensation was measured for one hour (FIGS. 1 and 2).

[15] = system: male Wistar rats; assay: formalin test, enhancement of analgesic effect of morphine (Example 13); type: in vivo; settings: 10 ng/rat bovine lactoferrin with 1 to 10,000 ng/rat morphine; several 10- to 100-fold or more; FIG. 16
Protocol: The lactoferrin's effect of enhancing the analgesic effect of morphine was examined by administering 1 to 10,000 ng/rat of morphine concurrently with 10 ng/rat of bovine lactoferrin (▪) or alone (●) in the same manner as in Example 12. The results are shown in FIG. 16: the number of the foot-lifting times in the phase 1 pain (left graph) and the number of foot-lifting time in the phase 2 pain (right graph).

[16] = system: adjuvant arthritis models; assay: adjuvant arthritis, Flexion test after a single oral dose (Example 7); type: in vivo, rat
Protocol: On day 25 after the adjuvant treatment, the rats were divided into 6 groups and administered once BSA (bovine serum albumin) or LF (lactoferrin), and after 3 hours, the pain index was measured for each group by Flexion test in the manner as in Example 5. Thirty minutes before Flexion test, saline solution, morphine or naloxone was administered subcutaneously.

[17] = system: rodent animals; assay: acetic acid rising test; type: in vivo; settings: administration before test
Excerpt: as §1

[18] = system: IL-10 production; assay: LPS-stimulated cytokine production in rats with adjuvant arthritis, ELISA (Example 8); type: in vivo, rat; settings: LPS 1 mg/kg i.p., blood 3 hours later
Protocol: (§5) It is known that in adjuvant arthritis models, the production of cytokines due to the LPS stimulation increases considerably, compared with normal animals, because the reactivity of their immune system increases due to chronic inflammation.
(§6) One mg/kg of LPS was administered intraperitoneally to rats with adjuvant arthritis to stimulate the production of cytokines. Three hours after the LPS administration, the blood was collected from each rat and the quantities of cytokines were measure by ELISA. The groups to be administered a single dose of lactoferrin (groups B and C) were given orally 0.5% CMC once daily until the experiment day to allow the experiment conditions to match those of the group to be administered lactoferrin for 19 consecutive days. The group to be administered lactoferrin for 19 consecutive days (group E) was administered orally lactoferrin once daily from the very day when treated with adjuvant. The design of the experiment is shown in Table 2 and the results in FIG. 14.

[19] = system: TNF-α production; assay: as above; type: in vivo, rat; settings: LPS 1 mg/kg i.p., blood 3 hours later
Protocol: as §5, §6

[20] = lactoferrin orally for 19 consecutive days
[21] = single oral dose of lactoferrin

B1: lactoferrin (protein, UniProt P24627 20-708, looked up)
Lactotransferrin: APRKNVRWCTISQPEWFKCRRWQWRMKKLGAPSITCVRRAFALECIRAIAEKKADAVTLDGGMVFEAGRDPYKLRPVAAEIYGTKESPQTHYYAVAVVKKGSNFQLDQLQGRKSCHTGLGRSAGWIIPMGILRPYLSWTESLEPLQGAVAKFFSASCVPCIDRQAYPNLCQLCKGEGENQCACSSREPYFGYSGAFKCLQDGAGDVAFVKETTVFENLPEKADRDQYELLCLNNSRAPVDAFKECHLAQVPSHAVVARSVDGKEDLIWKLLSKAQEKFGKNKSRSFQLFGSPPGQRDLLFKDSALGFLRIPSKVDSALYLGSRYLTTLKNLRETAEEVKARYTRVVWCAVGPEEQKKCQQWSQQSGQNVTCATASTTDDCIVLVLKGEADALNLDGGYIYTAGKCGLVPVLAENRKSSKHSSLDCVLRPTEGYLAVAVVKKANEGLTWNSLKDKKSCHTAVDRTAGWNIPMGLIVNQTGSCAFDEFFSQSCAPGADPKSRLCALCAGDDQGLDKCVPNSKEKYYGYTGAFRCLAEDVGDVAFVKNDTVWENTNGESTADWAKNLNREDFRLLCLDGTRKPVTEAQSCHLAVAPNHAVVSRSDRAAHVKQVLLHQQALFGKNGKNCPDKFCLFKSETKNLLFNDNTECLAKLGGRPTYEEYLGTEYVTAIANLKKCSTSPLLEACAFLTR
notes: bovine lactoferrin extracted from milk (Tatua Milk Industry Co., Ltd., purity 87%)
[1]
  phase 1 pain (number of foot-lifting times): inhibits
  phase 2 pain (number of foot-lifting times): inhibits
[2]
  sensation of pain against the stimulation: weakened sensation of pain
[3]
  resistance to protease: significantly resistive
[4]
  abnormal findings, single dose acute toxicity: no abnormal findings were observed
[5]
  abnormal findings, single dose acute toxicity: no abnormal findings were observed
[6]; FIG. 5
  inhibition of phase 1 pain: inhibited dose-dependently
  inhibition of phase 2 pain: inhibited dose-dependently
[6]; FIGS. 7 and 8
  duration of pain inhibiting effect after formalin injection: ≥ 60 min
[7]
  sensitivity to pepsin: highly sensitive
[8]
  area of the hemorrhage per rat, decreased to: 79%
  area of the ulcers, decreased to: about 30%
  number of the large ulcers, decreased to: 50%
  number of the ulcers, decreased to: 50%
  number, per rat, of hemorrhagic spots on the gastric mucosa, decreased to: 87%
[9]
  foot-licking behavior: significantly decreased
[9]; FIG. 4
  phase 2 pain sensation stimulation induced by formalin: significantly inhibiting
[9]; vs control P<0.0001, FIG. 3
  stimulation of the pain sensation (foot-lifting): weakened the sensitivity to pain
[10]; 7 consecutive days from day 19, LF vs control from day 1, Dex vs lactoferrin groups, FIG. 12C
  pain index in Flexion test: significantly lower
[10]; 7 consecutive days from day 19 after adjuvant, LF 100 mg/kg oral (day 7 vs control), Dex 1 mg/kg (from day 1)
  swelling of feet: significantly lower
[11]; 18 consecutive days from day 0, FIG. 10
  swelling rate of the feet: significantly lower
[11]; days 4 and 10 after adjuvant, FIG. 11
  Flexion test (screams, pain index): neither screamed nor showed pain sensation reaction
[12]
  abnormal findings, subacute toxicity: no abnormal findings were observed
[13]
  abnormal findings, subacute toxicity: no abnormal findings were observed
[14]; i.p. 100 ml/kg one hour before formalin, measured for one hour, vs control P<0.0001, FIG. 1
  foot-lifting behavior: significantly decreased
[14]; i.p. one hour before formalin, vs control, FIG. 2
  number of times rats lifted their feet within 50 minutes after formalin injection (phase 2 pain): more significantly decreased
[14]; i.p., higher doses, data not shown
  foot-licking behavior: significantly decreased
[15]
  enhancement of the analgesic effect of morphine, phase 1 pain: 10- to 100 fold
  enhancement of the analgesic effect of morphine, phase 2 pain: 10- to 100 fold
[16]; LF 100 mg/kg oral plus naloxone 3 mg/kg s.c. 30 mins before Flexion test
  analgesic effect of lactoferrin with naloxone: completely inhibited by naloxone
[16]; single oral dose 10 to 100 mg/kg, 3 hrs before test, day 25 after adjuvant, FIG. 13
  sensitivity to pain in the joints (Flexion test): inhibited the sensitivity to pain in the joints dose-dependently
[17]
  sensation of pain against the stimulation: weakened sensation of pain
[18]; [20]
  IL-10 production: increase
[18]; [21]
  IL-10 production: increase
[19]; [20]
  TNF-α production: significant inhibition
[19]; [21]
  TNF-α production: significant inhibition

Source: patent publication US8399414B2, “Analgesics” (NRL Pharma, Inc., priority 2002, dated 2013)
